B1: 310-63E6 Fab (Fab, V domains shown)
VH: QVQLVQSGAEVKKPGSSVKVSCTASGGTFSTYQFSWVRQAPGQGLEWMGRIVPIQGMDYAQKFRGRVTITADKWTSTVYMEVTSLRSEDTAVYYCATSRSMYFYYQLDVWGRGTTVTVSS
VL: EIVLTQSPGTLSLSPGERATVSCRASQSVTSTFLAWYQQRPGQAPRLLIYGASSRATGIPDRFSGSGSEADFTLTINRLEPEDFAVYYCQQYATSPWTFGQGTKVEIK
B2: 310-39G10 Fab (Fab, V domains shown)
VH: QVQLVQSGAEVKKPGSSVKVSCKASGGTFSRYTISWVRQAPGQGLEWMGRISPIAGLENYAQKFQGRVTITADISTSTAYMELSSLRSDDTAVYYCAGSSGYYQPPPYWGQGTLVTVSS
VL: EIVLTQAPFSLSLSPGERATLSCRASQSVSSSSLAWYHQKPGQAPRLLIYGASSRATGIPDRFSGSGSGTDFTLTISRLEPEDFSLYYCQQYGSSPLTFGQGTRLEIK

Target: Recombinant soluble HA trimer of A/New Caledonia/20/1999 (H1N1 NC99) (Influenza A virus A/New …, strain)
Assay: cryo-EM structure

Binder | binding result
B1 | binds
B2 | binds
